Source: patent publication US20230357348A1 (AstraZeneca / MedImmune, published 2023)
Starred links: 1 amine or outer side, 2 acyl side, 3 side chain; linkers in the order of their positions; H or OH if unused. Non-standard residues stand in square brackets, D forms with d. Groups on a side chain read outwards from the residue. No end group written: not given here. *: point of attachment. C20 diacid = O=C(O)CCCCCCCCCCCCCCCCCCC(=O)*; C18 diacid = O=C(O)CCCCCCCCCCCCCCCCC(=O)*; γGlu = O=C(O)[C@H](CCC(=O)[*:2])N[*:1]; αMeF = C[C@](N)(Cc1ccccc1)C(=O)O; AEEA = NCCOCCOCC(=O)O; Aib = CC(C)(N)C(=O)O

B1: Peptide 496 (peptide)
peptide: H[Aib]QGTFTSDVSK[αMeF]LDTK([AEEA-AEEA-γGlu-C20 diacid])RAQDFVRWLLR[Aib]K-NH2
modifications: N-terminus assumed
SMILES: CC(C)C[C@H](NC(=O)[C@H](Cc1c[nH]c2ccccc12)NC(=O)[C@H](CCCNC(=N)N)NC(=O)[C@@H](NC(=O)[C@H](Cc1ccccc1)NC(=O)[C@H](CC(=O)O)NC(=O)[C@H](CCC(N)=O)NC(=O)[C@H](C)NC(=O)[C@H](CCCNC(=N)N)NC(=O)[C@H](CCCCNC(=O)COCCOCCNC(=O)COCCOCCNC(=O)CC[C@H](NC(=O)CCCCCCCCCCCCCCCCCCC(=O)O)C(=O)O)NC(=O)[C@@H](NC(=O)[C@H](CC(=O)O)NC(=O)[C@H](CC(C)C)NC(=O)[C@](C)(Cc1ccccc1)NC(=O)[C@H](CCCCN)NC(=O)[C@H](CO)NC(=O)[C@@H](NC(=O)[C@H](CC(=O)O)NC(=O)[C@H](CO)NC(=O)[C@@H](NC(=O)[C@H](Cc1ccccc1)NC(=O)[C@@H](NC(=O)CNC(=O)[C@H](CCC(N)=O)NC(=O)C(C)(C)NC(=O)[C@@H](N)Cc1c[nH]cn1)[C@@H](C)O)[C@@H](C)O)C(C)C)[C@@H](C)O)C(C)C)C(=O)N[C@@H](CC(C)C)C(=O)N[C@@H](CCCNC(=N)N)C(=O)NC(C)(C)C(=O)N[C@@H](CCCCN)C(N)=O
B2: Peptide 497 (peptide)
peptide: H[Aib]QGTFTSDVSK[αMeF]LDTK([AEEA-AEEA-γGlu-C18 diacid])RAQDFVRWLLR[Aib]A-OH
modifications: N-terminus assumed
SMILES: CC(C)C[C@H](NC(=O)[C@H](Cc1c[nH]c2ccccc12)NC(=O)[C@H](CCCNC(=N)N)NC(=O)[C@@H](NC(=O)[C@H](Cc1ccccc1)NC(=O)[C@H](CC(=O)O)NC(=O)[C@H](CCC(N)=O)NC(=O)[C@H](C)NC(=O)[C@H](CCCNC(=N)N)NC(=O)[C@H](CCCCNC(=O)COCCOCCNC(=O)COCCOCCNC(=O)CC[C@H](NC(=O)CCCCCCCCCCCCCCCCC(=O)O)C(=O)O)NC(=O)[C@@H](NC(=O)[C@H](CC(=O)O)NC(=O)[C@H](CC(C)C)NC(=O)[C@](C)(Cc1ccccc1)NC(=O)[C@H](CCCCN)NC(=O)[C@H](CO)NC(=O)[C@@H](NC(=O)[C@H](CC(=O)O)NC(=O)[C@H](CO)NC(=O)[C@@H](NC(=O)[C@H](Cc1ccccc1)NC(=O)[C@@H](NC(=O)CNC(=O)[C@H](CCC(N)=O)NC(=O)C(C)(C)NC(=O)[C@@H](N)Cc1c[nH]cn1)[C@@H](C)O)[C@@H](C)O)C(C)C)[C@@H](C)O)C(C)C)C(=O)N[C@@H](CC(C)C)C(=O)N[C@@H](CCCNC(=N)N)C(=O)NC(C)(C)C(=O)N[C@@H](C)C(=O)O
B3: Peptide 498 (peptide)
peptide: H[Aib]QGTFTSDVSK[αMeF]LDTK([AEEA-AEEA-γGlu-C20 diacid])RAQDFVRWLLR[Aib]A-OH
modifications: N-terminus assumed
SMILES: CC(C)C[C@H](NC(=O)[C@H](Cc1c[nH]c2ccccc12)NC(=O)[C@H](CCCNC(=N)N)NC(=O)[C@@H](NC(=O)[C@H](Cc1ccccc1)NC(=O)[C@H](CC(=O)O)NC(=O)[C@H](CCC(N)=O)NC(=O)[C@H](C)NC(=O)[C@H](CCCNC(=N)N)NC(=O)[C@H](CCCCNC(=O)COCCOCCNC(=O)COCCOCCNC(=O)CC[C@H](NC(=O)CCCCCCCCCCCCCCCCCCC(=O)O)C(=O)O)NC(=O)[C@@H](NC(=O)[C@H](CC(=O)O)NC(=O)[C@H](CC(C)C)NC(=O)[C@](C)(Cc1ccccc1)NC(=O)[C@H](CCCCN)NC(=O)[C@H](CO)NC(=O)[C@@H](NC(=O)[C@H](CC(=O)O)NC(=O)[C@H](CO)NC(=O)[C@@H](NC(=O)[C@H](Cc1ccccc1)NC(=O)[C@@H](NC(=O)CNC(=O)[C@H](CCC(N)=O)NC(=O)C(C)(C)NC(=O)[C@@H](N)Cc1c[nH]cn1)[C@@H](C)O)[C@@H](C)O)C(C)C)[C@@H](C)O)C(C)C)C(=O)N[C@@H](CC(C)C)C(=O)N[C@@H](CCCNC(=N)N)C(=O)NC(C)(C)C(=O)N[C@@H](C)C(=O)O
B4: Peptide 499 (peptide)
peptide: H[Aib]QGTFTSDVSK[αMeF]LDTK([AEEA-AEEA-γGlu-C18 diacid])RAQDFVQWLLR[Aib]A-OH
modifications: N-terminus assumed
SMILES: CC(C)C[C@H](NC(=O)[C@H](Cc1c[nH]c2ccccc12)NC(=O)[C@H](CCC(N)=O)NC(=O)[C@@H](NC(=O)[C@H](Cc1ccccc1)NC(=O)[C@H](CC(=O)O)NC(=O)[C@H](CCC(N)=O)NC(=O)[C@H](C)NC(=O)[C@H](CCCNC(=N)N)NC(=O)[C@H](CCCCNC(=O)COCCOCCNC(=O)COCCOCCNC(=O)CC[C@H](NC(=O)CCCCCCCCCCCCCCCCC(=O)O)C(=O)O)NC(=O)[C@@H](NC(=O)[C@H](CC(=O)O)NC(=O)[C@H](CC(C)C)NC(=O)[C@](C)(Cc1ccccc1)NC(=O)[C@H](CCCCN)NC(=O)[C@H](CO)NC(=O)[C@@H](NC(=O)[C@H](CC(=O)O)NC(=O)[C@H](CO)NC(=O)[C@@H](NC(=O)[C@H](Cc1ccccc1)NC(=O)[C@@H](NC(=O)CNC(=O)[C@H](CCC(N)=O)NC(=O)C(C)(C)NC(=O)[C@@H](N)Cc1c[nH]cn1)[C@@H](C)O)[C@@H](C)O)C(C)C)[C@@H](C)O)C(C)C)C(=O)N[C@@H](CC(C)C)C(=O)N[C@@H](CCCNC(=N)N)C(=O)NC(C)(C)C(=O)N[C@@H](C)C(=O)O
B5: Peptide 500 (peptide)
peptide: H[Aib]QGTFTSDVSK[αMeF]LDTK([AEEA-AEEA-γGlu-C20 diacid])RAQDFVQWLLR[Aib]A-OH
modifications: N-terminus assumed
SMILES: CC(C)C[C@H](NC(=O)[C@H](Cc1c[nH]c2ccccc12)NC(=O)[C@H](CCC(N)=O)NC(=O)[C@@H](NC(=O)[C@H](Cc1ccccc1)NC(=O)[C@H](CC(=O)O)NC(=O)[C@H](CCC(N)=O)NC(=O)[C@H](C)NC(=O)[C@H](CCCNC(=N)N)NC(=O)[C@H](CCCCNC(=O)COCCOCCNC(=O)COCCOCCNC(=O)CC[C@H](NC(=O)CCCCCCCCCCCCCCCCCCC(=O)O)C(=O)O)NC(=O)[C@@H](NC(=O)[C@H](CC(=O)O)NC(=O)[C@H](CC(C)C)NC(=O)[C@](C)(Cc1ccccc1)NC(=O)[C@H](CCCCN)NC(=O)[C@H](CO)NC(=O)[C@@H](NC(=O)[C@H](CC(=O)O)NC(=O)[C@H](CO)NC(=O)[C@@H](NC(=O)[C@H](Cc1ccccc1)NC(=O)[C@@H](NC(=O)CNC(=O)[C@H](CCC(N)=O)NC(=O)C(C)(C)NC(=O)[C@@H](N)Cc1c[nH]cn1)[C@@H](C)O)[C@@H](C)O)C(C)C)[C@@H](C)O)C(C)C)C(=O)N[C@@H](CC(C)C)C(=O)N[C@@H](CCCNC(=N)N)C(=O)NC(C)(C)C(=O)N[C@@H](C)C(=O)O
B6: Peptide 501 (peptide)
peptide: H[Aib]QGTFTSDVSK[αMeF]LDTK([AEEA-AEEA-γGlu-C18 diacid])RARDFVQWLLR[Aib]A-OH
modifications: N-terminus assumed
SMILES: CC(C)C[C@H](NC(=O)[C@H](Cc1c[nH]c2ccccc12)NC(=O)[C@H](CCC(N)=O)NC(=O)[C@@H](NC(=O)[C@H](Cc1ccccc1)NC(=O)[C@H](CC(=O)O)NC(=O)[C@H](CCCNC(=N)N)NC(=O)[C@H](C)NC(=O)[C@H](CCCNC(=N)N)NC(=O)[C@H](CCCCNC(=O)COCCOCCNC(=O)COCCOCCNC(=O)CC[C@H](NC(=O)CCCCCCCCCCCCCCCCC(=O)O)C(=O)O)NC(=O)[C@@H](NC(=O)[C@H](CC(=O)O)NC(=O)[C@H](CC(C)C)NC(=O)[C@](C)(Cc1ccccc1)NC(=O)[C@H](CCCCN)NC(=O)[C@H](CO)NC(=O)[C@@H](NC(=O)[C@H](CC(=O)O)NC(=O)[C@H](CO)NC(=O)[C@@H](NC(=O)[C@H](Cc1ccccc1)NC(=O)[C@@H](NC(=O)CNC(=O)[C@H](CCC(N)=O)NC(=O)C(C)(C)NC(=O)[C@@H](N)Cc1c[nH]cn1)[C@@H](C)O)[C@@H](C)O)C(C)C)[C@@H](C)O)C(C)C)C(=O)N[C@@H](CC(C)C)C(=O)N[C@@H](CCCNC(=N)N)C(=O)NC(C)(C)C(=O)N[C@@H](C)C(=O)O
B7: Peptide 502 (peptide)
peptide: H[Aib]QGTFTSDVSK[αMeF]LDTK([AEEA-AEEA-γGlu-C20 diacid])RARDFVQWLLR[Aib]A-OH
modifications: N-terminus assumed
SMILES: CC(C)C[C@H](NC(=O)[C@H](Cc1c[nH]c2ccccc12)NC(=O)[C@H](CCC(N)=O)NC(=O)[C@@H](NC(=O)[C@H](Cc1ccccc1)NC(=O)[C@H](CC(=O)O)NC(=O)[C@H](CCCNC(=N)N)NC(=O)[C@H](C)NC(=O)[C@H](CCCNC(=N)N)NC(=O)[C@H](CCCCNC(=O)COCCOCCNC(=O)COCCOCCNC(=O)CC[C@H](NC(=O)CCCCCCCCCCCCCCCCCCC(=O)O)C(=O)O)NC(=O)[C@@H](NC(=O)[C@H](CC(=O)O)NC(=O)[C@H](CC(C)C)NC(=O)[C@](C)(Cc1ccccc1)NC(=O)[C@H](CCCCN)NC(=O)[C@H](CO)NC(=O)[C@@H](NC(=O)[C@H](CC(=O)O)NC(=O)[C@H](CO)NC(=O)[C@@H](NC(=O)[C@H](Cc1ccccc1)NC(=O)[C@@H](NC(=O)CNC(=O)[C@H](CCC(N)=O)NC(=O)C(C)(C)NC(=O)[C@@H](N)Cc1c[nH]cn1)[C@@H](C)O)[C@@H](C)O)C(C)C)[C@@H](C)O)C(C)C)C(=O)N[C@@H](CC(C)C)C(=O)N[C@@H](CCCNC(=N)N)C(=O)NC(C)(C)C(=O)N[C@@H](C)C(=O)O

What follows are binders tested against human glucagon receptor (hGCGR) (human, UniProt P47871 26-477) (assay: cell-based or functional assay).
Chain of human glucagon receptor (hGCGR) (P47871 26-477): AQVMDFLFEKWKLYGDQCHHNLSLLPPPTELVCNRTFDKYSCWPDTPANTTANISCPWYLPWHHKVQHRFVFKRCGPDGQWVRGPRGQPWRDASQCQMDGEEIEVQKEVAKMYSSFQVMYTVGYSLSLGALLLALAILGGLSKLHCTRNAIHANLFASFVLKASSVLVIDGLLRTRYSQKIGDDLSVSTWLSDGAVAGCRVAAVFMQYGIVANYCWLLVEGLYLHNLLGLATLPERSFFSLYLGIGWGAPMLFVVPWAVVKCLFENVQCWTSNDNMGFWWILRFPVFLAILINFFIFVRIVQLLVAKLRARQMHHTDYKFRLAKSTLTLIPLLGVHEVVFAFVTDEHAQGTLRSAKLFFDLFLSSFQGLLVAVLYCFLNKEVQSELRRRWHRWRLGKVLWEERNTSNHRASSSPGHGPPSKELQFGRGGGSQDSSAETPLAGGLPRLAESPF

**Q.** With B1 as the binder, how does the “hGluc-R EC50 (pM)” value read?
**A.** 482 pM

**Q.** For B2, which “hGluc-R EC50 (pM)” value is on record?
**A.** 118 pM

**Q.** For B3, which “hGluc-R EC50 (pM)” value is on record?
**A.** 170 pM

**Q.** For B4, which “hGluc-R EC50 (pM)” value is on record?
**A.** 78.8 pM

**Q.** Which “hGluc-R EC50 (pM)” value does the source give for B5 here?
**A.** 101 pM

**Q.** For B6, which “hGluc-R EC50 (pM)” value is on record?
**A.** 75.6 pM

**Q.** With B7 as the binder, how does the “hGluc-R EC50 (pM)” value read?
**A.** 175 pM

**Q.** Which “hGluc-R EC50 (pM)” value does the source give for H[Aib]QGTFTSDVSK[αMeF]LDTK([AEEA-AEEA-γGlu-C20 diacid])RAQDFVRWLLE[Aib]K-OH [Peptide 503] here?
**A.** 84.9 pM

These binders were tested against human GLP-1 receptor (hGLP-1R) (human, UniProt P43220 24-463) (assay: cell-based or functional assay).

**Q.** For B1, which “hGLP-1R EC50 (pM)” value is on record?
**A.** 64.9 pM

**Q.** Which “hGLP-1R EC50 (pM)” value does the source give for B2 here?
**A.** 37.4 pM

**Q.** How did the “hGLP-1R EC50 (pM)” value turn out when B3 was run?
**A.** 156 pM

**Q.** B4 was tested. Which “hGLP-1R EC50 (pM)” value did it give?
**A.** 40.6 pM

**Q.** How did the “hGLP-1R EC50 (pM)” value turn out when B5 was run?
**A.** 102 pM

**Q.** How did the “hGLP-1R EC50 (pM)” value turn out when B6 was run?
**A.** 26.5 pM

**Q.** Which “hGLP-1R EC50 (pM)” value does the source give for B7 here?
**A.** 82.1 pM

**Q.** With H[Aib]QGTFTSDVSK[αMeF]LDTK([AEEA-AEEA-γGlu-C20 diacid])RAQDFVRWLLE[Aib]K-OH [Peptide 503] as the binder, how does the “hGLP-1R EC50 (pM)” value read?
**A.** 81.2 pM
